{"source": "patent US20240181094A1", "about": "“[161Tb]-BASED RADIOPEPTIDES” (priority 2021, published 2024)", "key": {"in vivo": {"assay": "in vivo", "conditions": "female, mouse, iv, 1 nmol/mouse, total radioactivity"}, "AR42J tumor-bearing mice [1]": {"tested_on": "AR42J tumor-bearing mice", "assay": "Biodistribution studies: comparison of 161Tb- and 177Lu-labeled peptides", "conditions": "1 nmol/mouse, 2 h p.i."}, "AR42J tumor-bearing mice [2]": {"tested_on": "AR42J tumor-bearing mice", "conditions": "female, CD-1 Foxn-1/nu athymic nude, mouse, in vivo, iv, 1 nmol/mouse, 24 h"}}, "note": "Starred links: 1 amine or outer side, 2 acyl side, 3 side chain; linkers in the order of their positions; H or OH if unused. Positions of bridges follow the written chain, without caps; N, C: chain ends. Non-standard residues stand in square brackets, D forms with d. Residues, ends and D or L forms follow the SMILES beside them. *: point of attachment. DOTA = O=C(O)CN1CCN(CC(=O)O)CCN(CC(=O)*)CCN(CC(=O)O)CC1; X1 = NC(=O)Nc1ccc(CC(N[*:1])C(=O)[*:2])cc1; Phe(4-Cl) = N[CH](Cc1ccc(Cl)cc1)C(=O)O"}
{"smiles": "CC(O)C1NC(=O)C(CCCCN)NC(=O)C(Cc2ccc(NC(N)=O)cc2)NC(=O)C(Cc2ccc(O)cc2)NC(=O)C(NC(=O)C(Cc2ccc(Cl)cc2)NC(=O)CN2CCN(CC(=O)O)CCN(CC(=O)O)CCN(CC(=O)O)CC2)CSSCC(C(=O)NC(Cc2ccc(O)cc2)C(N)=O)NC1=O", "note": "(stereo not shown) [metal not drawn] ({DOTA}-[Phe(4-Cl)]CY[X1]KTCY-NH2; disulfide 2-7; configuration not given here)", "values": [{"measurement": "tissue uptake at 2 h", "setting": "in vivo; CD-1 Foxn-1/nu athymic nude", "value": "≤ 0.1", "unit": "%ID/g"}, {"measurement": "tissue uptake at 24 h", "setting": "in vivo; CD-1 Foxn-1/nu athymic nude", "value": "≤ 0.1", "unit": "%ID/g"}, {"measurement": "tissue uptake at 2 h", "setting": "in vivo; athymic nude CD-1 Foxn-1/nu", "value": "≤ 0.1", "unit": "%ID/g"}, {"measurement": "tissue uptake at 24 h", "setting": "in vivo; athymic nude CD-1 Foxn-1/nu", "value": "≤ 0.1", "unit": "%ID/g"}, {"measurement": "Femur uptake", "setting": "AR42J tumor-bearing mice [1]", "value": "0.20 ± 0.05", "unit": "% IA/g"}, {"measurement": "Lung uptake", "setting": "AR42J tumor-bearing mice [1]", "value": "1.0 ± 0.2", "unit": "% IA/g"}, {"measurement": "Muscle uptake", "setting": "AR42J tumor-bearing mice [2]", "value": "≤0.10", "unit": "% IA/g"}]}
